Reference: publication doi:10.1101/2024.01.24.577129, “IgG hexamers initiate acute lung injury” (bioRxiv, 2024)

T1: K^d MHC class I monomer presenting VYLKTNVFL (Mus musculus, H-2d haplotype (K^d), UniProt P01902;P01887)
T1 chain 1: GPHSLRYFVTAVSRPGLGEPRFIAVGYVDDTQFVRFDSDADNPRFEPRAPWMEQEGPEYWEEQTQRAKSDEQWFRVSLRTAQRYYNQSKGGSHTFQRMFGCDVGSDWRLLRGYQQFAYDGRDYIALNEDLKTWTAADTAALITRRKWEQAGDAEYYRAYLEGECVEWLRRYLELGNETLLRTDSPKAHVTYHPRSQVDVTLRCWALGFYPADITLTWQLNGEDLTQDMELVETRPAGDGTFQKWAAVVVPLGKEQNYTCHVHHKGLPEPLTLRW
T1 chain 2: not shown
T1 chain 3: VYLKTNVFL


Legend:
[1] = target: T2, D^b MHC class I monomer presenting … (Mus musculus, H-2b haplotype (D^b), UniProt P01899;P01887); experiment: SPR; monoclonal antibody bound via amine coupling to SensEye G Easy2Spot sensors; serial dilutions (0.5-200 nM) of MHC class I monomers injected; triplicate; IBIS MX96 SPR imager; settings: both partners purified
T2 construct: Commercial MHC class I monomer; also called H-2D^b; MBL International TB-5008-M; copies: + +

[2] = target: T3, K^b MHC class I monomer presenting SIINFEKL (Mus musculus, H-2b haplotype (K^b), UniProt P01901;P01887); experiment: as above; settings: both partners purified
T3 construct: Commercial MHC class I monomer; also called H-2K^b; MBL International TB-5001-M; copies: + +

[3] = target: T1, K^d MHC class I monomer presenting …

| Binder | binding result [1] | binding result [2] | binding result [3] |
| --- | --- | --- | --- |
| 34-1-2S antibody (antibody, V domains shown, heavy chain variable region of 34-1-2S; mouse IgG2a heavy chain constant region; the class follows from the mIgG2a isotype control and the mIgG2a model; light chain variable region of 34-1-2S; light chain constant region of the mouse antibody; Mouse IgG2a monoclonal antibody; also called clone 34-1-2S; MHC class I alloantibody 34-1-2S; source: bought: BioXCell Cat# BE0180 (stated for the injury …)) VH: EVQLQQSGAEFVRPGASVKLSCTASGFNLKDDYMFWVKQRPEQGLEWIGWIAPDNGDTEYASKFQGKATITADTSSNTAYVQLSSLTSEDTAVYYCTTWGYYSYVNYWGQGTTLTVSS VL: DIQMTQSPSSLSASLGERVSLTCRASQDIGSNLNWLQQEPDGTIKRLIYATYSLDSGVPKRFSGSRSGSDYSLTISSLESEDFVDYYCLQYASSPYTFGGGTKLEIK | no binding (tested: 0.5-200 nM) | binds |  |
| Kd1 (antibody, V domains shown) VH: EVLLVESGGDLVKPGGSLKLSCAASGFTFRTYAMSWVRQTPEKRLEWVATIGDDGSYTFYPDNVKGRFTISRDNAKNNLYLQMRHLKSEDTAIYFCARDGLFAYWGQGTLVTVSA VL: DIQMTQSPSSLSASLGGKVTITCKASQDIKKNIAWYQYKPGKGPRLLIHYTSTLQPGISSRFSGSGSGRDYSFSISNLEPEDIATYYCLQYDSLLYTFGGGTKLEIK |  |  | binds |
